Values belong to the substance of their own block, whether it stands above or below them.
Legend:
CD20 (human) = CD20 (human) (UniProt P11836); assay: SPR; Biacore T200, CM5 chip with immobilised anti-His antibody, 20 °C; His-tagged receptor or antigen captured; serial dilutions of anti-CD20 X-body, IgG or IgA injected (120 s binding, 240 s dissociation, 30 µL/min); 1:1 binding kinetic model or steady-state affinity model
FcγRIIIa^F158 (human) = FcγRIIIa^F158 (human) (UniProt P08637); assay: as above
FcRn = FcRn (UniProt P55899); assay: as above
FcγRIIa^H131 (human) = FcγRIIa^H131 (human) (UniProt P12318); assay: as above
FcγRIIb (human) = FcγRIIb (human) (UniProt P31994); assay: as above
FcγRIIIa^V158 (human) = assay: as above
FcγRI = FcγRI (UniProt P12314); assay: SPR; Biacore T200; CM5 chip with immobilised anti-His antibody captures the His-tagged receptor or antigen; serial dilutions of antibody injected (120 s binding, 240 s dissociation, 30 µL/min); 20 °C; 1:1 binding kinetic model or steady-state affinity model
CD89 (human) = CD89 (human) (UniProt P24071); assay: as above
CD89 (human), sequence (P24071 22-287): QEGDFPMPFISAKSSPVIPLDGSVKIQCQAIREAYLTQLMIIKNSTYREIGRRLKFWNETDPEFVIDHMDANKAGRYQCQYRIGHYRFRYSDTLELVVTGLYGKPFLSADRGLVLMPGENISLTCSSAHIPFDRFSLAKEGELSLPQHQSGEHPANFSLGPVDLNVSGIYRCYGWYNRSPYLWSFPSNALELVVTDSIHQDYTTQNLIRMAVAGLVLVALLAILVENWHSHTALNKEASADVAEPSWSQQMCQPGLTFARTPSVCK

CD20 (human), sequence (P11836 whole entry): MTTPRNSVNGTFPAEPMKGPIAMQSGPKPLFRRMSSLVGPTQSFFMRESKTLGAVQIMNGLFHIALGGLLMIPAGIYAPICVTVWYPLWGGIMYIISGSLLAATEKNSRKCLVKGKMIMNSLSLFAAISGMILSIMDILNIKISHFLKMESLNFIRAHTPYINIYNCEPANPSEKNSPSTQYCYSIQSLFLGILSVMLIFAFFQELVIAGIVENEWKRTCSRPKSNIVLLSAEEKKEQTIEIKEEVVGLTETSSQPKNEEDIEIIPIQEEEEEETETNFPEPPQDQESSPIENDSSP
FcγRI, sequence (P12314 16-374): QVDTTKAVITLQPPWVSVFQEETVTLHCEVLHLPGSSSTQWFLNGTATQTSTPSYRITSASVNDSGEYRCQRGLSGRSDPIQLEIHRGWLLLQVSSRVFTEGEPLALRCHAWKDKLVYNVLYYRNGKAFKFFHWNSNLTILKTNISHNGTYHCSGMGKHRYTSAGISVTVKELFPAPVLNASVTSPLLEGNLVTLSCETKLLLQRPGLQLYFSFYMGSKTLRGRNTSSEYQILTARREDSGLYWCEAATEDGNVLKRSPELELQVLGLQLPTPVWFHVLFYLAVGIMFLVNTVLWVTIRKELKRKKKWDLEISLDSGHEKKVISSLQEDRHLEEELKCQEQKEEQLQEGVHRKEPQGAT
FcγRIIb (human), sequence (P31994 43-217): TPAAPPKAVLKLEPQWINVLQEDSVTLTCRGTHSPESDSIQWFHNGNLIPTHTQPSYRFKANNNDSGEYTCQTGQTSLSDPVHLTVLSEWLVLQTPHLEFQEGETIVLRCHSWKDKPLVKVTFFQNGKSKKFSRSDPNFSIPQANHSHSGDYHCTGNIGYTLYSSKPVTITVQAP
FcγRIIa^H131 (human), sequence (P12318 34-217): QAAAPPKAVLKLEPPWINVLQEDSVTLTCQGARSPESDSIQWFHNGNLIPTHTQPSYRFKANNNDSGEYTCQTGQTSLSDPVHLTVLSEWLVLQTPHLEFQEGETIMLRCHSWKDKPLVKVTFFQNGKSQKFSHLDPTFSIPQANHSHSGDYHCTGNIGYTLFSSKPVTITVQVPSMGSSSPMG
FcγRIIIa^F158 (human), sequence (P08637 17-208): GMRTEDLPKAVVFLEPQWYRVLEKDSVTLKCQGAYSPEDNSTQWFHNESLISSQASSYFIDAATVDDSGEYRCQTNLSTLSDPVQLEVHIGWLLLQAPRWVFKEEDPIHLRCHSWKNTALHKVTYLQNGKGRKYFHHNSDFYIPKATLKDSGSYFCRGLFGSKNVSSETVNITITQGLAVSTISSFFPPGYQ

Kd (CD20 (human)): 6.71 nM
Substance: Rituximab IgA (antibody)

Kd (FcγRIIIa^F158 (human)): 0.0663 nM
Kd (FcRn): 0.0391 nM
Kd (CD20 (human)): 3.74 nM
Kd (FcγRIIa^H131 (human)): 0.0548 nM
Kd (FcγRIIb (human)): 0.00277 nM
Kd (FcγRIIIa^V158 (human)): 0.0603 nM
Substance: Rituximab IgG (antibody)

Kd (FcγRI): 272 nM
Kd (CD89 (human)): 58.8 nM
Substance: trastuzumab IgA (antibody)

Kd (FcγRI): 113 nM
Substance: trastuzumab IgG (antibody)

Source: PMC9706586
